Source: paper PMC5190064

Biological target: integrin αvβ3 expressed on primary human brain endothelial cells (ECs) (human (endogenous in primary brain ECs)) (UniProt P06756)
Chain of UniProt P06756 (P06756 31-1048, chain 1 of 2): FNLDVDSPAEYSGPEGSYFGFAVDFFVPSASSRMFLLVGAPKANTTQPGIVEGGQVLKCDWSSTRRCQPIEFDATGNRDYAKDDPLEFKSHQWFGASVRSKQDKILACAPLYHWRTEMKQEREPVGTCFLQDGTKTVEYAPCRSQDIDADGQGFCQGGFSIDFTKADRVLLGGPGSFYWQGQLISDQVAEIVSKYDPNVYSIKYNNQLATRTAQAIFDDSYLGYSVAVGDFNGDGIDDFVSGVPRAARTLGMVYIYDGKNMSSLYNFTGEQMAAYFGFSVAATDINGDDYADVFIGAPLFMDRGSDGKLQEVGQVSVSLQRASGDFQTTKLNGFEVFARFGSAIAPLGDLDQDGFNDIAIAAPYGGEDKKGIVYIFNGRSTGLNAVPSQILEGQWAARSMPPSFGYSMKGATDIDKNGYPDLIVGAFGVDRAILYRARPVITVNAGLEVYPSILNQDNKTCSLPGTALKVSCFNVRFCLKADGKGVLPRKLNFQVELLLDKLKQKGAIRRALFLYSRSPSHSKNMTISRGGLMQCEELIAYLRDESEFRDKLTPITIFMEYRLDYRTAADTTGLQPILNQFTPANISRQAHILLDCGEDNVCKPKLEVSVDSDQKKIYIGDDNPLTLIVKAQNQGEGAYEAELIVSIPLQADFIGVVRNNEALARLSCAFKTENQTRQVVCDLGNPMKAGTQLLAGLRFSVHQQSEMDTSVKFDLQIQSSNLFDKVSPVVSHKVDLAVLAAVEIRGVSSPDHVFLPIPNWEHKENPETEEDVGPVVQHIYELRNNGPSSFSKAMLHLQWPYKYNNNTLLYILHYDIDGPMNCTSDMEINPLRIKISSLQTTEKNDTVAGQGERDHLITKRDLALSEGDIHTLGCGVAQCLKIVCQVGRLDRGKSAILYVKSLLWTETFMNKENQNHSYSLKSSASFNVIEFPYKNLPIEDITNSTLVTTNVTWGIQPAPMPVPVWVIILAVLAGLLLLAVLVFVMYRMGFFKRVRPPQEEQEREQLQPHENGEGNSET
Chain of UniProt P06756 (P05106 27-788, chain 2 of 2, further chain): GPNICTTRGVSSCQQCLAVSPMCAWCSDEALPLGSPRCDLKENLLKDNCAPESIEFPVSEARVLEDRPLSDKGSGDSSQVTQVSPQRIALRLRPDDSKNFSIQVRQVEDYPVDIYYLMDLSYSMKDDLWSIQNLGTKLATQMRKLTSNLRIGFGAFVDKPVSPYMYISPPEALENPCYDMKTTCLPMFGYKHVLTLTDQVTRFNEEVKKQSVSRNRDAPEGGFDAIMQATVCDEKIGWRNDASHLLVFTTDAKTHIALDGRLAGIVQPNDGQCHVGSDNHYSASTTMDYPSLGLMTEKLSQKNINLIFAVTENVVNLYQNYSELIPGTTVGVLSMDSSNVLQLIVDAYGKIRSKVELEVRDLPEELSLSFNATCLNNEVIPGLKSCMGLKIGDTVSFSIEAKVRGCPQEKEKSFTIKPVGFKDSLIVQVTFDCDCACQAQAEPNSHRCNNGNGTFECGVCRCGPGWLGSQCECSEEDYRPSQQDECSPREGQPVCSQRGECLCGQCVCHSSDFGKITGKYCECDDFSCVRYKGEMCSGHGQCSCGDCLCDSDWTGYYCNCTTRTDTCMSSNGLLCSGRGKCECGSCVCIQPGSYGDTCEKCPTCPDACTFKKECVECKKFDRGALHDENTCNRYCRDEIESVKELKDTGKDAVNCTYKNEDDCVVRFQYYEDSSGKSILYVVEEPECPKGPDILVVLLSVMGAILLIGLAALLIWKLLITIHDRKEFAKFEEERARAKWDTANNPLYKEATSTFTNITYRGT

L1CAM expressed on cancer stem-like cells (CSCs) from glioblastoma (from UniProt P32004 20-1257) (receptor)
cell-cell adhesion of GFP-CSCs (08387) to a confluent EC monolayer after pre-incubation of ECs with a neutralizing antibody to integrin αvβ3; percent reduction of CSC adhesion: 43%
